Measurements: IntAct's records for PubMed 31142615

B1: E3 ubiquitin-protein ligase MARCHF2 (Homo sapiens), Q9P0N8 (parent)
chain: MTTGDCCHLPGSLCDCSGSPAFSKVVEATGLGPPQYVAQVTSRDGRLLSTVIRALDTPSDGPFCRICHEGANGECLLSPCGCTGTLGAVHKSCLEKWLSSSNTSYCELCHTEFAVEKRPRPLTEWLKDPGPRTEKRTLCCDMVCFLFITPLAAISGWLCLRGAQDHLRLHSQLEAVGLIALTIALFTIYVLWTLVSFRYHCQLYSEWRKTNQKVRLKIREADSPEGPQHSPLAAGLLKKVAEETPV

Variants of: B1
Settings: with ergi3_human ERGIC3, Q9Y282
Sequence of ergi3_human ERGIC3, Q9Y282 (Q9Y282 whole entry): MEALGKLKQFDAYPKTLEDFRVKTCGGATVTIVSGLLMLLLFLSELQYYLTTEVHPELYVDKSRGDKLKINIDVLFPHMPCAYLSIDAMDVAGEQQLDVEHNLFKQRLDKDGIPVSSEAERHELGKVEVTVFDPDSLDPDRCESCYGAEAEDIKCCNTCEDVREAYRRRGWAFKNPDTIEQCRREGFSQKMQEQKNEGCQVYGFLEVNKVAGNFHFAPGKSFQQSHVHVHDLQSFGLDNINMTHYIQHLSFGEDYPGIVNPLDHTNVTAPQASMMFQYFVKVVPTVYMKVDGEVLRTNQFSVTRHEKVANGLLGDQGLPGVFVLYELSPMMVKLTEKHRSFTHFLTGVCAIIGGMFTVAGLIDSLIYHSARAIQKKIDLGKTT

Variant | effect of a mutation on the interaction
C64S;C67S | decreasing interaction strength

Variants of: B1
Settings: with ergi3_human ERGIC3, Q9Y282
Remark: another data set of the same source

Variant | effect of a mutation on the interaction
C64S;C67S | with no effect

Variants of: B1
Settings: with ergi3_human ERGIC3, Q9Y282
Remark: another data set of the same source

Variant | effect of a mutation on the interaction
C64S;C67S | causing an interaction
